# Where no end group is shown, it is not given here.
# T1: UFC1 (E2), wild type, uncharged (UniProt Q9Y3C8 1-167)
# T1 sequence: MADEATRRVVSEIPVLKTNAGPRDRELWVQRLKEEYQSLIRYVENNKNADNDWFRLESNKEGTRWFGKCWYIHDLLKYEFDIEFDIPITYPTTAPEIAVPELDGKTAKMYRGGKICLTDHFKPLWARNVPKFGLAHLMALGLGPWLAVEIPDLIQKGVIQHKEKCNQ
# T2: UFC1 K47E (UniProt Q9Y3C8 1-167, K47E)
# T2 sequence: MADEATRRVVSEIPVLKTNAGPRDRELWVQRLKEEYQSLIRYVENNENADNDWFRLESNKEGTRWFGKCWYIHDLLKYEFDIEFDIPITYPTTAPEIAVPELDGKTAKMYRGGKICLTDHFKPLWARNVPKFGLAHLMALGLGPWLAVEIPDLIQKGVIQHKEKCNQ
# How the values were obtained:
# [1] = target: charged UFC1 (UFC1~UFM1): isopeptide‐linked UFC1 T106S/C116K ‐ Strep‐tagged UFM1 covalent complex (UniProt Q9Y3C8); test: ITC
# [2] = target: T1, UFC1 (E2), wild type, uncharged; test: NMR titration
# [3] = target: T1, UFC1 (E2), wild type, uncharged; test: ITC
# [4] = target: T2, UFC1 K47E; test: ITC
molecule,measurement,setting,value
DDRGK1ext‐UFL1 extended fusion protein (DDRGK1 87–314 ‐ UFL1 1–200) (from UniProt Q96HY6 87-314; O94874 1-200),Kd,[1],0.23 µM
DDRGK1‐UFL1 fusion protein (DDRGK1 207–314 ‐ UFL1 1–200) (from UniProt Q96HY6;O94874),Kd,[1],2.57 µM
"UBA5 C‐terminus (UBA5 347–404) (domain or fragment, also: uniformly 15N-labelled) SEVSEEELKNFSGPVPDLPEGITVAYTIPKKQEDSVTELTVEDSGESLEDLMAKMKNM",binding result,[2],binds
DDRGK1‐UFL1 fusion protein (DDRGK1 207–314 ‐ UFL1 1–200) (other) MTEEQSQSFLTEFINYIKQSKVVLLEDLASQVGLRTQDTINRIQDLLAEGTITGVIDDRGKFIYITPEELAAVANFIRQRGRVSIAELAQASNSLIAWGRESPAQAPAMADAWEEIRRLAADFQRAQFAEATQRLSERNCIEIVNKLIAQKQLEVVHTLDGKEYITPAQISKEMRDELHVRGGRVNIVDLQQVINVDLIHIENRIGDIIKSEKHVQLVLGQLIDENYLDRLAEEVNDKLQESGQVTISELCKTYDLPGNFLTQALTQRLGRIISGHIDLDNRGVIFTEAFVARHKARIRGLFSAITRP,Kd,[3],2.3 µM
same,Kd,[4],33.8 µM
